# In paper doi:10.1101/2020.04.13.039982 (bioRxiv, 2020):
# B1: peptide encompassing the C-terminus of Tub1 (amino acids 415-447), wild-type (peptide)
# peptide: not shown
# Biological target: T1, 6His-She1 C-terminal fragment (residues 194 to 338) (S. cerevisiae, UniProt P38200 194-338)
# T1 sequence (looked up): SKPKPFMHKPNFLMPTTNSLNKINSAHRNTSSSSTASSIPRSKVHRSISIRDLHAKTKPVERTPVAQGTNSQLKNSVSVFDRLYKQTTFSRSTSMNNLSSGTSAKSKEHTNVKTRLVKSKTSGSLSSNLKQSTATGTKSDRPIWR
# Experiment: pull-down
binder,measurement,value
B1,binding result,binds
